In the supplement of paper PMC9170038:

system: MS2 coat protein; assay: apparent KD of MS2 coat protein; higher = weaker reporter binding; settings: Eterna round: R107; input ligand: arginine 13.2 mM
Method in brief: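 Titration buffer: 100 mM Tris-HCl pH 7.5, 80 mM KCl, 4 mM MgCl2, without or with constant ligand. Designed RNA switches transcribed on-chip from Illumina sequencing clusters received SNAP-549-labelled MS2 coat protein in twofold steps from 0.7 or 1.5 nM to 3 µM. Apparent KD is the median per design of fits to normalised cluster binding curves.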

“GACAUGAGGAUCACCCAUGUACCGCGAGAAGGAGCGCGGAUAAACGCAGGUAGGUCGCUCGUGGGCUUACAUUCAAGUGUAAGCU [Usarat]” was tested, and the “apparent KD of MS2 coat protein” value was 49 nM.

same assay, conditions: Eterna round: R107; input ligand: none

Going from “CUCAUCCACGCGGCCGCCACUACUUGUAGGUGUGGGUGUGUUGUGUUACAUGAGGAUCACCCAUGUAGGACCGGGCGUGGAUGAG [Whale]” to “UAUAUAGAUGGAAGUCAUAUAGAUGCAGAAGGAGCGUAGGAAACUACAGGUAGGUCGCUGAGGUACAUGAGGAUCACCCAUGUAG [SSArg A #18 Slice of Pi]”, the “apparent KD of MS2 coat protein” value falls from 62.7 nM to 27.3 nM (2.3-fold).

First: GCGAUGGAGCGAAGGAGCGGCUAAAUGUAUCACAUGAGGAUCACCCAUGUUCCAGGAUGUGGCCAGGUAGGUCGCGCUCCAUCGC [SSAB NP+V+V2 #16]
Second: UGUGUUGUCCGAAGGAGCGGGACCUAAUAGUGGUAACAUGAGGAUCACCCAUGUAUUUCGUCCCAGGUAGGUCGCGGACAGUGUA [ArgiB-ms2@36]
The “apparent KD of MS2 coat protein” value of the first is 11-fold higher: 229 nM for the first, 20.7 nM for the second.

Compared with “GAAGGAGAACUCAUGACUCCUUCCCUGGAAGGAGCGAGCGAAAGCUCAGGUAGGUCGCCAGAAACAUGAGGAUCACCCAUGUAAU [(A)''-(M)'-(A)'-(Arg1)-(Arg2)-(M1)-(M2)_Design4]”, “AUCAUGGCCAUCGAUACCAGCUACAUGAGGAUCACCCAUGUAAACGGCGCGGUGAGAUGUAGCCCUUGGCAGCGAAGGGUCAAGG [Beonrexe]” is 2.2-fold lower in “apparent KD of MS2 coat protein” value: 37.4 nM for the first, 16.8 nM for the second.

Compared with “CCUAUGCAGUCGGCCGCCACUGAACAUGAGGAUCACCCAUGUAAUUAUAAAUAUGGUCCUAAAAUCAGGACCGGGACUGUAUAGG [Ex Tryptophan B 7]”, “UACCGAUGAAGAAGGAGCGUACGUGGUUCACAUGAGGAUCACCCAUGUGCUUAUUGCUAGGUACAGGUAGGUCGCUUCAUCGGUA [SSAB NP+V+V2 #21]” is 4.1-fold lower in “apparent KD of MS2 coat protein” value: 64.2 nM for the first, 15.5 nM for the second.

Compared with “CUCUCAUGAACAUGAGGAUCACCCAUGUAACGAGGACCGGUACGGCCGCCACUCGGUCGUGGAAACUAAUCGAGUGAGGUGGGAG [Tryp A Ex t5c]”, “GCUACAUGAGGAUCACCCAUGUGUACUGAAGGAGCGGCGGAAACGCCAGGUAGGUCGCAGUAUGUGGCUCUGGGCACGAGAAAGC [SSAA NP+V+V2 #2]” is 1.8-fold lower in “apparent KD of MS2 coat protein” value: 44.4 nM for the first, 25.3 nM for the second.

First: CGCCGAGAGGGAAGGAGCGCGAUAACAUAACAUGAGGAUCACCCAUGUAAGAAAUUAAUCAUGCAGGUAGGUCGCCCAAGCGGCG [Same State Arginine B GF 3]
Second: GGUCACCUAUCCUCAUUGGUGACCCUGGAAGGAGCGAGCGAGAGCUCAGGUAGGUCGCCAGAACAUGAGGAUCACCCAUGUAAUA [(A)''-(M)'-(A)'(Arg1)-(Arg2)-(M1)-(M2)_Design12]
The “apparent KD of MS2 coat protein” value of the first is 6.3-fold lower: 15.1 nM for the first, 94.9 nM for the second.

Going from “GAGGGUGAGCCUCUGGUCCGUUUGACGGAUACCAGCGAGAGGUCUCGCCCUUGGCAGCCGACGACAUGAGGAUCACCCAUGUUAA [#09 Exclusion-TheophyllineA]” to “GUUUAAAGGUCGGCCGCCACUGUAGGAUGUGUUCUUUCACAUGAGGAUCACCCAUGUUGUUAUUAUAGGACCGGGAUUGUAGGAC [39MS split4]”, the “apparent KD of MS2 coat protein” value rises from 17.1 nM to 41.4 nM (2.4-fold).

“AACAUGAGGAUCACCCAUGUCUGAACUGAAGGAGCGCUAAAUAAGGCAGGUAGGUCGCGGAAUUUUGUAUAUAUAUAUAUAUGGG [9.F]” and “UUUUUCAUAGGUUAUAGUUAAGAAACUGAAGGAGCGUGGUAAUACACAGGUAGGUCGCAGAUUUUACAUGAGGAUCACCCAUGUU [JR_SSArginiA_Sub009]” are within 1.5-fold of each other in “apparent KD of MS2 coat protein” value: 27.7 nM for the first, 34.9 nM for the second.

Going from “CUGUACAUCUCGGCCGCCACUGACAUGAGGAUCACCCAUGUAGUACCUGAGAUAGACAUAUCUUACAGGACCGGGAGGUGUGCAG [SSTryp B #31]” to “GACAUGAGGAUCACCCAUGUACCGCGAGAAGGAGCGCGGAUAAACGCAGGUAGGUCGCUCGUGGGCUUACAUUCAAGUGUAAGCU [Usarat]”, the “apparent KD of MS2 coat protein” value rises from 10.2 nM to 106 nM (10-fold).

same assay, conditions: Eterna round: R107; input ligand: theophylline 20 uM

Going from “AUCUACGUGGGUGAUACCAGCUGGUUAGUACACAUGAGGAUCACCCAUGUGCAGGCAGGCAGCCCUUGGCAGCACCGCAGUGGCU [theeternabot_sameState_MS2_Theo_B_36]” to “CUCAUCCACGCGGCCGCCACUACUUGUAGGUGUGGGUGUGUUGUGUUACAUGAGGAUCACCCAUGUAGGACCGGGCGUGGAUGAG [Whale]”, the “apparent KD of MS2 coat protein” value falls from 221 nM to 85.6 nM (2.6-fold).

Compared with “UAUAUAGAUGGAAGUCAUAUAGAUGCAGAAGGAGCGUAGGAAACUACAGGUAGGUCGCUGAGGUACAUGAGGAUCACCCAUGUAG [SSArg A #18 Slice of Pi]”, “UUCUACGGCGAUCUGGGUUUACCAGAUCGACGAGGACCGGUACGGCCGCCACUCGUGUUUCUUUAACAUGAGGAUCACCCAUGUA [#11 Tryptophan A Same State]” is 2.3-fold higher in “apparent KD of MS2 coat protein” value: 34.1 nM for the first, 78.7 nM for the second.

Compared with “AUUCAUAAUUGGGUAAAUGGAUAGAGUGAUACCAGUCAUAUACAUGACCCUUGGCAGCACAAGGACAUGAGGAUCACCCAUGUCA [Same State Theophylline A GF22]”, “GAUCGACAAAACGUCUAGGAAAACUAGACGCGAGGACCGGUACGGCCGCCACUCGUCCUCACAUGAGGAUCACCCAUGUACGAUC [#SwitchBubble 2 #CuTurnoff]” is 1.6-fold higher in “apparent KD of MS2 coat protein” value: 26.7 nM for the first, 43.2 nM for the second.

Compared with “GCGAUGGAGCGAAGGAGCGGCUAAAUGUAUCACAUGAGGAUCACCCAUGUUCCAGGAUGUGGCCAGGUAGGUCGCGCUCCAUCGC [SSAB NP+V+V2 #16]”, “UGUGUUGUCCGAAGGAGCGGGACCUAAUAGUGGUAACAUGAGGAUCACCCAUGUAUUUCGUCCCAGGUAGGUCGCGGACAGUGUA [ArgiB-ms2@36]” is 6.6-fold lower in “apparent KD of MS2 coat protein” value: 212 nM for the first, 32.2 nM for the second.

“GAAGGAGAACUCAUGACUCCUUCCCUGGAAGGAGCGAGCGAAAGCUCAGGUAGGUCGCCAGAAACAUGAGGAUCACCCAUGUAAU [(A)''-(M)'-(A)'-(Arg1)-(Arg2)-(M1)-(M2)_Design4]” and “AUCAUGGCCAUCGAUACCAGCUACAUGAGGAUCACCCAUGUAAACGGCGCGGUGAGAUGUAGCCCUUGGCAGCGAAGGGUCAAGG [Beonrexe]” are within 1.5-fold of each other in “apparent KD of MS2 coat protein” value: 48 nM for the first, 49.2 nM for the second.

First: CCUAUGCAGUCGGCCGCCACUGAACAUGAGGAUCACCCAUGUAAUUAUAAAUAUGGUCCUAAAAUCAGGACCGGGACUGUAUAGG [Ex Tryptophan B 7]
Second: UCUCACAUGAGGAUCACCCAUGUGUGCGGUCGAGGACCGGUACGGCCGCCACUCGAAUCCUUCCGCGAGAAGAUUGUACGACGGC [theeternabot_sameState_MS2_Trp_A_38]
The “apparent KD of MS2 coat protein” value of the first is 1.9-fold higher: 144 nM for the first, 74.4 nM for the second.

Compared with “AUCUGUAUGUUUUCGUGUUUUAUUACAGAUACCAGACUAUACGUUGUCCCUUGGCAGCUGGAUGACAUGAGGAUCACCCAUGUUG [#27 Exclusion-TheophyllineA]”, “GCAUCCUAGUCGGCCGCCACUGCAUCACCAGUGGCAGGUGAUCAACAUGAGGAUCACCCAUGUAGCAGGACCGGGACUAGGAUGC [(Trp1)-(TM)''-(TM)'-(Ms2)-(Trp2)_Design4]” is 4-fold higher in “apparent KD of MS2 coat protein” value: 41.2 nM for the first, 163 nM for the second.

Compared with “GGGUACAUCACGGCCGCCACUCAUGUAAAUACAUGAGGAUCACCCAUGUCGAUGGAGACAUCGGAGAGGACCGGGUGAUGUACCG”, “UACCGAUGAAGAAGGAGCGUACGUGGUUCACAUGAGGAUCACCCAUGUGCUUAUUGCUAGGUACAGGUAGGUCGCUUCAUCGGUA [SSAB NP+V+V2 #21]” is 19-fold lower in “apparent KD of MS2 coat protein” value: 394 nM for the first, 21 nM for the second.

Compared with “CUCUCAUGAACAUGAGGAUCACCCAUGUAACGAGGACCGGUACGGCCGCCACUCGGUCGUGGAAACUAAUCGAGUGAGGUGGGAG [Tryp A Ex t5c]”, “GCUACAUGAGGAUCACCCAUGUGUACUGAAGGAGCGGCGGAAACGCCAGGUAGGUCGCAGUAUGUGGCUCUGGGCACGAGAAAGC [SSAA NP+V+V2 #2]” is 3-fold lower in “apparent KD of MS2 coat protein” value: 85.7 nM for the first, 28.3 nM for the second.

With “CGCCGAGAGGGAAGGAGCGCGAUAACAUAACAUGAGGAUCACCCAUGUAAGAAAUUAAUCAUGCAGGUAGGUCGCCCAAGCGGCG [Same State Arginine B GF 3]” the “apparent KD of MS2 coat protein” value was 23.8 nM.
